In patent publication US20230279131A1:
Like-named read-outs stand apart in the source and are kept apart here. Blank lines part the entries; values can stand above or below the substance they belong to.

Assays:
[1] = target: human IL-2Rγ expressed on cells (human) (UniProt P31785); assay: flow cytometry, isotype control at 10 µg/ml; low end of the range (Jurkat by Table 9-1)
[2] = target: human IL-2Rγ expressed on cells (human) (UniProt P31785); assay: flow cytometry on NK-92 cells, isotype control at 10 µg/ml; the end of the range that Table 9-2 ties to NK-92
[3] = target: T1, human IL-2Rγ expressed on cells (NK-92, Jurkat) (human) (UniProt P31785); assay: flow cytometry on Jurkat cells (endogenous human IL-2Rg), isotype control 10 ug/ml
T1 sequence (looked up): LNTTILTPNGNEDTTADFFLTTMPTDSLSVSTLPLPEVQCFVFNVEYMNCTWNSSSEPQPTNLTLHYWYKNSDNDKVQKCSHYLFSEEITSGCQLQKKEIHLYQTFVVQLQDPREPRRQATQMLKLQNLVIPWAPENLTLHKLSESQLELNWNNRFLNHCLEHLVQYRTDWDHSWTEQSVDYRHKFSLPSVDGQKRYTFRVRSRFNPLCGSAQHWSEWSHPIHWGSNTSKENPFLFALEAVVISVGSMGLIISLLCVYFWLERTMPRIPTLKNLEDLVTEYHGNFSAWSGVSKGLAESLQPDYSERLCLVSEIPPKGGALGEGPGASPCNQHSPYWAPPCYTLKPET

[4] = target: human IL-2Rγ expressed on cells (human) (UniProt P31785); assay: flow cytometry, isotype control at 10 µg/ml; high end of the range (NK-92 by Table 9-1)
[5] = target: T1, human IL-2Rγ expressed on cells (NK-92, Jurkat) (human); assay: flow cytometry on NK-92 cells (endogenous human IL-2Rg), isotype control 10 ug/ml
[6] = target: T1, human IL-2Rγ expressed on cells (NK-92, Jurkat) (human); assay: as above; remark: listed apart in the source
[7] = target: T2, mouse IL-2Rγ expressed on cells (MC/9) (mouse) (UniProt P34902); assay: flow cytometry on MC/9 cells (endogenous mouse IL-2Rg), isotype control 10 ug/ml
T2 sequence (looked up): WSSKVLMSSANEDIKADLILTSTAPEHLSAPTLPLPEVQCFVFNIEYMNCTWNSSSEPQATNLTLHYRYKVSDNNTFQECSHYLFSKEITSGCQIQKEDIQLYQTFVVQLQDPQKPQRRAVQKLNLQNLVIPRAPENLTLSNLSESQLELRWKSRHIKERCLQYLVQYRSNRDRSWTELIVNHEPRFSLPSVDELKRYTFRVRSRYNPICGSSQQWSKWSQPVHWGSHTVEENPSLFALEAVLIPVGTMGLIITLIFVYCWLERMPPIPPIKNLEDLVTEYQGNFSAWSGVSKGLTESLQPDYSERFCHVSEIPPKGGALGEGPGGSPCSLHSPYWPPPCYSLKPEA

[8] = target: T1, human IL-2Rγ expressed on cells (NK-92, Jurkat) (human); assay: flow cytometry on Jurkat cells (endogenous human IL-2Rg), secondary antibody alone
[9] = target: T1, human IL-2Rγ expressed on cells (NK-92, Jurkat) (human); assay: flow cytometry on NK-92 cells (endogenous human IL-2Rg), secondary antibody alone
[10] = target: T2, mouse IL-2Rγ expressed on cells (MC/9) (mouse); assay: flow cytometry on MC/9 cells (endogenous mouse IL-2Rg), secondary antibody alone
[11] = target: T3, human IL2Rγ expressed on cells (human) (UniProt P31785); assay: cell-based or functional assay
T3 sequence (looked up): T1 sequence (looked up)

[12] = target: T3, human IL2Rγ expressed on cells (human); assay: cell-based or functional assay; remark: listed apart in the source

binding ratio (sample MFI over unstained MFI) [1]: 1
binding ratio (sample MFI over unstained MFI) [2]: 1
Binding Ratio (Sample over unstained MFIs) [3]: 1
binding ratio (sample MFI over unstained MFI) [4]: 13
Binding Ratio (Sample over unstained MFIs) [5]: 13
Binding Ratio (Sample over unstained MFIs) [6]: 1
Binding Ratio (Sample over unstained MFIs) [7]: 1
Substance: REGN1945 (antibody)

Binding Ratio (Sample over unstained MFIs) [8]: 1
Binding Ratio (Sample over unstained MFIs) [9]: 1
Binding Ratio (Sample over unstained MFIs) [10]: 1
Substance: anti-human antibody conjugated to allophycocyanin (APC) (Jackson ImmunoResearch, #109-136-170)

EC50 [M] of ligand; NK92/hIL7R/STAT3-luc [11]: 4.5e-11 M
EC50 [M] of ligand; NK92/hIL7R/STAT3-luc [12]: 3.3e-11 M
Substance: human IL-2 (from UniProt P60568 21-153) (ligand)

EC50 [M] of ligand; NK92/hIL7R/STAT3-luc [11]: 3.3e-11 M
EC50 [M] of ligand; NK92/hIL7R/STAT3-luc [12]: 2e-11 M
Substance: human IL-9 (from UniProt P15248 19-144) (ligand)

EC50 [M] of ligand; NK92/hIL7R/STAT3-luc [11]: 2.3e-10 M
EC50 [M] of ligand; NK92/hIL7R/STAT3-luc [12]: 1.5e-10 M
Substance: human IL-15 (from UniProt P40933 49-162) (ligand)

EC50 [M] of ligand; NK92/hIL7R/STAT3-luc [11]: 6e-12 M
EC50 [M] of ligand; NK92/hIL7R/STAT3-luc [12]: 3.1e-12 M
Substance: human IL-21 (from UniProt Q9HBE4 30-162) (ligand)
